The text below walks through data of patent US20150111829A1 (PHASEBIO PHARMACEUTICALS, published 2015).

Assay in all cases: cell-based or functional assay
Assay [1] has as its target T1, human Vasoactive Intestinal Peptide Receptor 1 (VPAC1) (human) (UniProt P32241).
T1 sequence (looked up): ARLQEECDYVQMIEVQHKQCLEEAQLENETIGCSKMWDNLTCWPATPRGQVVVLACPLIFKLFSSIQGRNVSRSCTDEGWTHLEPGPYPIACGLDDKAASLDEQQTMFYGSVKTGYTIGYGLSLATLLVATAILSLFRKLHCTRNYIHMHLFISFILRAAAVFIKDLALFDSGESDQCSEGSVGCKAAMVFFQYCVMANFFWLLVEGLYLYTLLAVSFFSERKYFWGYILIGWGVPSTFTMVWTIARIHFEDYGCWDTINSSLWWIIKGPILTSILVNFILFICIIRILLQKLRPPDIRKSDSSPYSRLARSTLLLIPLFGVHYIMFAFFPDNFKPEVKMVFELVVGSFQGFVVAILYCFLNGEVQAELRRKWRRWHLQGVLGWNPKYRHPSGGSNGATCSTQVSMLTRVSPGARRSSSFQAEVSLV

The target of assay [2] is T2, human Vasoactive Intestinal Peptide Receptor 2 (VPAC2) (human) (UniProt P41587).
T2 sequence (looked up): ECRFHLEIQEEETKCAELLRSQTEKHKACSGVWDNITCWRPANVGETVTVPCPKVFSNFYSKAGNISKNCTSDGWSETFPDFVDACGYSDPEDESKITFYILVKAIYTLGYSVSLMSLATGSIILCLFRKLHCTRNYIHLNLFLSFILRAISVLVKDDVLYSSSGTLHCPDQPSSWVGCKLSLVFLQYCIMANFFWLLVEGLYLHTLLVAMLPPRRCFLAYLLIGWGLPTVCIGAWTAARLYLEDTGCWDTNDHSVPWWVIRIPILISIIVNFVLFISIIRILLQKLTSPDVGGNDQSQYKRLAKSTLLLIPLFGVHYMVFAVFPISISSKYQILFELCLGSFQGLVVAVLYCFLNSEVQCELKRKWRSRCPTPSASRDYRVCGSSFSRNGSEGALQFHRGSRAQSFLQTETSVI

Assay [3] deals with T3, human Vasoactive Intestinal Peptide Receptor 1 (VPAC1) (human, UniProt P32241 31-457).
T3 sequence (looked up): T1 sequence (looked up)

In turn, HSDAVFTDNYTRLRKQMAVKKYLNSILN (peptide, part only; not given: ELP1-120 polymer, part only) [VIP-ELP1-120 fusion peptide PB1120] showed a cAMP assay in CHO cells expressing VPAC1, fold less active than native VIP (fold less active than native VIP) in assay [1] of 1.4. The same molecule came in with a cAMP assay in CHO cells expressing VPAC2, fold less active than native VIP (fold less active than native VIP) in assay [2] of 1.5.

B1: M-VIP-ELP1-120 fusion protein PB1046 (other)
chain: MHSDAVFTDNYTRLRKQMAVKKYLNSILNVPGVGVPGVGVPGGGVPGAGVPGVGVPGVGVPGVGVPGGGVPGAGVPGGGVPGVGVPGVGVPGGGVPGAGVPGVGVPGVGVPGVGVPGGGVPGAGVPGGGVPGVGVPGVGVPGGGVPGAGVPGVGVPGVGVPGVGVPGGGVPGAGVPGGGVPGVGVPGVGVPGGGVPGAGVPGVGVPGVGVPGVGVPGGGVPGAGVPGGGVPGVGVPGVGVPGGGVPGAGVPGVGVPGVGVPGVGVPGGGVPGAGVPGGGVPGVGVPGVGVPGGGVPGAGVPGVGVPGVGVPGVGVPGGGVPGAGVPGGGVPGVGVPGVGVPGGGVPGAGVPGVGVPGVGVPGVGVPGGGVPGAGVPGGGVPGVGVPGVGVPGGGVPGAGVPGVGVPGVGVPGVGVPGGGVPGAGVPGGGVPGVGVPGVGVPGGGVPGAGVPGVGVPGVGVPGVGVPGGGVPGAGVPGGGVPGVGVPGVGVPGGGVPGAGVPGVGVPGVGVPGVGVPGGGVPGAGVPGGGVPGVGVPGVGVPGGGVPGAGVPGVGVPGVGVPGVGVPGGGVPGAGVPGGGVPGVGVPGVGVPGGGVPGAGVPGVGVPGVGVPGVGVPGGGVPGAGVPGGGVPGWP
Take B1: the “cAMP assay in CHO cells expressing VPAC1, fold less active than native VIP” value in assay [3] is ~11 fold less active than native VIP.
